Experimental data reported in paper PMC12145851.

What was measured:
[1] = target: phospholamban (PLN) (mouse (endogenous in mouse heart)) (UniProt P61014); assay: co-IP; PLN antibody immunoprecipitation from unfixed mouse cardiac tissue lysate (IP group), immunoblot of co-precipitated proteins
[2] = target: phospholamban (PLN) (mouse (endogenous in mouse heart)) (UniProt P61014); assay: co-IP; PLN antibody immunoprecipitation from 3 % glyoxal-fixed (cross-linked) mouse cardiac tissue lysate (xIP group), immunoblot of co-precipitated proteins

Sequence of UniProt P61014 (P61014 whole entry): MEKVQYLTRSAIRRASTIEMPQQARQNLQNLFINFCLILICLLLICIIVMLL

## integrin beta-1 (ITGB1) (from UniProt P09055 21-798) (natural protein)
[1]
  signal of co-precipitated protein (relative, %): 100%
[2]
  signal of co-precipitated protein (relative, %): 282%
